Results as given in publication PMC10783636, “Chlorophyll biosynthesis under the control of arginine metabolism” (Cell Reports, 2023).

How the values were obtained:
[1] = target: 3×FLAG-tagged ArgD (N-acetylornithine aminotransferase) of Synechocystis sp. PCC 6803 (Synechocystis sp. PCC 6803) (UniProt P73133); assay: co-IP; f.ArgD from Synechocystis cells grown with 18 mM nitrate without or with Orn (1 mM for 24 h; 100 μM for 1 h); proteins released from the anti-FLAG resin with 1% SDS instead of FLAG peptide; western blot; WT control
[2] = target: 3×FLAG-tagged ArgD (N-acetylornithine aminotransferase) of Synechocystis sp. PCC 6803 (Synechocystis sp. PCC 6803) (UniProt P73133); assay: co-IP; f.ArgD or f.AstC purified from the soluble fraction of Synechocystis strains (ΔargD or ΔcphB background; cells with nitrate, without or with 1 mM Orn for 24 h) on anti-FLAG M2 gel, eluted with 3xFLAG peptide; SDS-PAGE, stained, blotted and probed with anti-Gun4 and anti-CphB
[3] = target: ArgD-6xHis, recombinant Synechocystis ArgD (Synechocystis sp. PCC 6803) (UniProt P73133); assay: isothermal spectral shift assay; 5 nM labeled ArgD or 20 nM labeled Gun4 (Red NHS dye) titrated with a serial dilution of the unlabelled partner; 25 mM Tris, 0.1% Pluronic F-127, pH 8, 25°C; Monolith X; triplicate
[4] = target: Gun4-6xHis, recombinant Synechocystis Gun4 (Synechocystis sp. PCC 6803); assay: as above
[5] = target: T1, ArgD-6xHis, recombinant Synechocystis ArgD (Synechocystis sp. PCC 6803, UniProt P73133 1-429, 2nd Generation Red NHS dye); assay: as above; details: both partners purified
T1 construct: N-acetylornithine aminotransferase ArgD, Synechocystis sp; PCC 6803, gene slr1022; the recombinant protein produced in E. coli is called full-length where the antibodies are described; Construct pET21a-argD; also called labeled ArgD; source: E. coli BL21 (DE3), pET21a, purified (Ni-NTA); not shown: His6, C-terminal, kept
T1 sequence (looked up): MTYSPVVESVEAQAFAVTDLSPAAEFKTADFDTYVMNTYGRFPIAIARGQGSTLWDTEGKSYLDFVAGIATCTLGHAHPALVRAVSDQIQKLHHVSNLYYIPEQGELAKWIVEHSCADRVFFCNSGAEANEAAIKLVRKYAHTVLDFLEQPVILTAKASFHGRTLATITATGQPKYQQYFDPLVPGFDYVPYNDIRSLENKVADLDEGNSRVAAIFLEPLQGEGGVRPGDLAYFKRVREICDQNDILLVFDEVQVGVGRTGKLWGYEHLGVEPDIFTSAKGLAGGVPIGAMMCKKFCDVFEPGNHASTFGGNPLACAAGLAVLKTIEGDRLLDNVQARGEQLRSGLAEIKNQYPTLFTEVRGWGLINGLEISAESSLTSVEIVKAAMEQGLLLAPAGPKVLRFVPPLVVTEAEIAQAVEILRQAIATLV

[6] = target: the molecule itself; assay: native gel or EMSA; 2D blue native/SDS-PAGE of the f.ArgD anti-FLAG eluate; apparent mass on the BN gel

Work on “Gun4 protein of Synechocystis sp. PCC 6803 (native) (natural protein)” yielded a fold enrichment of Gun4 in the f.ArgD pull-down (Orn-treated cells against control) [1] of over 12 ×, a fold increase of f.ArgD-co-purified Gun4 (1 h feeding with 100 μM Orn against control) [1] of 6 times and a fold more Gun4 co-purified with f.ArgD (cells with 1 mM Orn for 24 h against cells without Orn) [2] of 6 times.

In the case of “Gun4-6xHis, recombinant Synechocystis Gun4 (natural protein)”, the Kd [3] is reported as 55.8 nM.

B1: CphB-6xHis, recombinant Synechocystis CphB (enzyme, Synechocystis sp. PCC 6803, UniProt P73832 1-271, looked up)
chain: MPLSSQPAILIIGGAEDKVHGREILQTFWSRSGGNDAIIGIIPSASREPLLIGERYQTIFSDMGVKELKVLDIRDRAQGDDSGYRLFVEQCTGIFMTGGDQLRLCGLLADTPLMDRIRQRVHNGEISLAGTSAGAAVMGHHMIAGGSSGEWPNRALVDMAVGLGIVPEIVVDQHFHNRNRMARLLSAISTHPELLGLGIDEDTCAMFERDGSVKVIGQGTVSFVDARDMSYTNAALVGANAPLSLHNLRLNILVHGEVYHQVKQRAFPRVT
notes: cyanophycinase CphB, Synechocystis sp; PCC 6803, gene slr2001; the recombinant protein produced in E. coli is called full-length where the antibodies are described; Construct pET21a-cphB; source: E. coli BL21 (DE3), pET21a, purified (Ni-NTA); not shown: His6, C-terminal, kept
For B1, the Kd [4] was 2160 nM and the Kd [5] was 29800 ± 960 nM.

B2: cyanophycinase CphB of Synechocystis sp. PCC 6803 (native) (enzyme, UniProt P73832 1-271, looked up)
chain: MPLSSQPAILIIGGAEDKVHGREILQTFWSRSGGNDAIIGIIPSASREPLLIGERYQTIFSDMGVKELKVLDIRDRAQGDDSGYRLFVEQCTGIFMTGGDQLRLCGLLADTPLMDRIRQRVHNGEISLAGTSAGAAVMGHHMIAGGSSGEWPNRALVDMAVGLGIVPEIVVDQHFHNRNRMARLLSAISTHPELLGLGIDEDTCAMFERDGSVKVIGQGTVSFVDARDMSYTNAALVGANAPLSLHNLRLNILVHGEVYHQVKQRAFPRVT
notes: cyanophycinase CphB, Synechocystis sp; PCC 6803, gene slr2001; printed as 29.4 kDa; Migrated like a large oligomer (>200 kDa) on the BN gel; source: endogenous, Synechocystis soluble fraction
B2: binds [6].

B3: 3×FLAG-tagged ArgD (N-acetylornithine aminotransferase) of Synechocystis sp. PCC 6803 (enzyme, UniProt P73133 1-429, looked up)
chain: MTYSPVVESVEAQAFAVTDLSPAAEFKTADFDTYVMNTYGRFPIAIARGQGSTLWDTEGKSYLDFVAGIATCTLGHAHPALVRAVSDQIQKLHHVSNLYYIPEQGELAKWIVEHSCADRVFFCNSGAEANEAAIKLVRKYAHTVLDFLEQPVILTAKASFHGRTLATITATGQPKYQQYFDPLVPGFDYVPYNDIRSLENKVADLDEGNSRVAAIFLEPLQGEGGVRPGDLAYFKRVREICDQNDILLVFDEVQVGVGRTGKLWGYEHLGVEPDIFTSAKGLAGGVPIGAMMCKKFCDVFEPGNHASTFGGNPLACAAGLAVLKTIEGDRLLDNVQARGEQLRSGLAEIKNQYPTLFTEVRGWGLINGLEISAESSLTSVEIVKAAMEQGLLLAPAGPKVLRFVPPLVVTEAEIAQAVEILRQAIATLV
notes: N-acetylornithine aminotransferase ArgD, Synechocystis sp; PCC 6803, gene slr1022; synthetic argD gene with optimised codon usage cloned into pPD-NFLAG; f.ArgD printed as 49.8 kDa; also called f.ArgD; source: Synechocystis f.argD+/ΔargD or f.argD+/ΔcphB strain (psbAII promoter), soluble fraction; not shown: 3xFLAG, N-terminal, kept
In the case of B3, the “stoichiometry N” value [6] is reported as 2.
